We go through 1 substance from publication PMC10781510.

The experiment concerns the target HIS-MBP-GASZ-ΔMLS (mouse). The experiment can be described thus: native gel or EMSA; native PAGE of gel-filtration fraction 5, non-reducing and non-denaturing sample buffer (50 mM Tris pH 7.6, 100 mM NaCl, 0.01% DDM), with or without 2% SDS in the loading buffer, Coomassie blue; monomer to dimer. Background: Mobility shift assays separate free from complexed probe on a gel.

As a reminder, the stoichiometry N is a count of units in the complex or per binding partner.

In turn, HIS-MBP-GASZ-ΔMLS (domain or fragment) yielded a stoichiometry N of 2.
